Data on three substances can be found in PMC3546673.

Assay [1] concerns the target F-actin (actin filaments) (UniProt P68135). Description: single filament binding assay (fluorescence microscopy); actin filaments from 1 μM G-actin with rhodamine-phalloidin (1 μM) and Alexa-488-labeled trx protein (5 μM), 22 °C, 30 min; diluted 1:50 and put on poly-L-lysine-coated coverslips.
The target of assay [2] is gelsolin-capped actin filaments (UniProt P68135). Put plainly: single filament binding assay (fluorescence microscopy); gelsolin-capped actin filaments labeled with rhodamine-phalloidin, incubated with Alexa-488-conjugated trx-PT or mutant (5 μM), 22 °C, 30 min; diluted 1:50 and put on poly-L-lysine-coated coverslips.

As to “recombinant thioredoxin-phostensin (trx-PT) (natural protein)”, in assay [1], the percent localized at the filament end was found to be 96%. trx-PT(35–165) (domain or fragment): in assay [2], the percent localized at a filament end amounted to 96%. Regarding trx-PT(125–165) (domain or fragment), the percent bound to the sides of actin filaments in assay [1] is 98%.
